Values of other authors, collected in article PMC4643947.
Like-named read-outs stand apart in the source and are kept apart here.

Key:
[1] = molecular target: Nrf2 10mer peptide (Homo sapiens)
[2] = molecular target: p62 (Homo sapiens) (UniProt Q13501)
[3] = molecular target: Nrf2 14mer peptide (Homo sapiens)
[4] = molecular target: p62 (Homo sapiens) (UniProt Q13501); remark: listed apart in the source

Q: Which Kd [1] does the source give for Keap1 (from UniProt Q14145) here?
A: 30.1 nM

Q: What about the Kd [2] of the same substance?
A: 2000 nM

Q: And the Kd [3]?
A: 61.9 nM

Q: And the Kd [4]?
A: 118 nM
